Tests used:
[1] = tested on: CB1 receptor signaling, WIN55,212 induced ERK phosphorylation in Trex-CHO CB1 receptor cells; test: ERK activation assay (western blot); type: cell-based, human; details: 100 nM
Experimental: (§1) Two days before the experiment, Trex-CHO CB1 receptor cells were seeded at 500,000 cells/well into 6-well plates. 1 μg/mL tetracycline was used to induce CB1 receptor expression after 24 hours. Cells were serum starved for at least two hours before the experiment. […] Cell lysates were harvested and the level of ERK activation was determined by western blot. Anti-ERK and Anti-phospho-specific ERK antibodies were obtained from Cell Signaling Inc.
as §1, with “Trex-CHO CB1 receptor-expressing cells were” for “Trex-CHO CB1 receptor cells were”

[2] = target: T1, CB1 surface expression (CB1 TRex-CHO / TRex-293 cells) (Homo sapiens, UniProt P21554); type: cell-based; details: for CB1 receptor internalization induced by the substance alone: 1 hour; for effect on WIN55,212 induced CB1 receptor internalization: antibody 300 nM pre-treatment, 1 μM WIN55,212 1 hour
T1 construct: pcDNA4/TO native full length human CB1 receptor construct was transfected into tetracycline inducible system Trex-CHO and Trex-293 cells; expressed in transfected cells; tetracycline induced
T1 sequence (P21554 whole entry): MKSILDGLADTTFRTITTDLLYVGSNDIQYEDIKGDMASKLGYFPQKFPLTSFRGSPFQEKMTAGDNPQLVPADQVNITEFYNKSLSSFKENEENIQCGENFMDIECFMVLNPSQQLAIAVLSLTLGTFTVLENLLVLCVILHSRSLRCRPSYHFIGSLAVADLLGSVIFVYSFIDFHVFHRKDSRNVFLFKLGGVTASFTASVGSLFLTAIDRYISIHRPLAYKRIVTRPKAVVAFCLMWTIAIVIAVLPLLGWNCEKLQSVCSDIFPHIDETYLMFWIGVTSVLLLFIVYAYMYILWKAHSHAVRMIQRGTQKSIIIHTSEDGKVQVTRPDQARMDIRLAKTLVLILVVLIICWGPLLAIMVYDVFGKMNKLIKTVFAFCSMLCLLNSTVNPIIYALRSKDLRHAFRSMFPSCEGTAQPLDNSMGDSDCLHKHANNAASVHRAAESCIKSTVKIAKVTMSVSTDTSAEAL
Experimental: 5×10^5 cells/well stably expressing CB1 TRex-CHO cells were seeded in a 6-well plate. Tetracycline (1 μg/ml) was added to culture medium for 24 hours to induce CB1 expression. On the day of the experiment, cells were serum starved for 2 hours. Cells were then pre-incubated with CB1 antibody (300 nM), AM6545 (CB1 neutral antagonist) and negative control (BRIL binder) for half an hour. […] Surface expression of CB1 was stained with anti-CB1 N-terminus mouse monoclonal antibody from R&D and the mean fluorescence intensity (MFI) was determined using flow cytometry.
The impact of CB1 antibody on receptor internalization was also investigated. […] Cells were harvested and stained with anti-CB1 N-terminus mouse monoclonal antibody (R&D).
On the day of the experiment, cells were serum starved for 2 hours. Cells were then pre-incubated with CB1 antibody (300 nM), AM6545 (CB1 neutral antagonist) and negative control (BRIL binder) for half an hour. […] Surface expression of CB1 was stained with anti-CB1 N-terminus mouse monoclonal antibody from R&D and the mean fluorescence intensity (MFI) was determined using flow cytometry (Guava).

[3] = target: A139 iCAPS (human CB1, ICL3 replaced with BRIL); test: ELISA binding of IgG/Fab to CB1 iCAPS A139; details: IgG and Fab ELISA, Table 8
Experimental: (§2) Purified IgG was tested for binding to purified CB1 receptor (CB1 Conformation Antigen Presenting System (iCAPS)) by ELISA. Non-biotinylated antigens (e.g. empty iCAPS) were coated directly on Maxisorp plates. The primary antibodies were purified IgGs with 1:3 serial dilutions, incubated on the plate for 1 hour. After 3 rounds of washing with PBST, secondary antibodies HRP goat anti-mouse IgG (Abmart) or HRP goat anti-human IgG (Sigma), depending on the species of the IgGs were added and incubated for another hour. The plates were washed three times with PBST, then developed with TMB (Biopanda). HCl was added to the plates to stop the reaction. Absorbance at 450 nm was read on Emax precision microplate reader (Molecular Devices).
(§3) IgG and Fab molecules tested were 36E12B6C2 IgG, 36E12B6C2 Fab, PA13R3-P1C4 IgG, and PA13R3-P1C4 Fab, compared to negative control BRIL binder P1F7 IgG and P1F7 Fab. For IgG antibodies, the secondary antibody used to detect binding was anti-mouse IgG-HRP; for Fabs, the secondary antibody used to detect binding was anti-human IgG-HRP.

[4] = target: A138 iCAPS (human CB1, ICL3 replaced with protein 1 sequence); test: ELISA binding of IgG/Fab to CB1 iCAPS A138; details: IgG and Fab ELISA, Table 8
Experimental: as §2, §3

| Molecule | ERK activation by agonist [1] | CB1 receptor internalization induced by the substance alone [2] | effect on WIN55,212 induced CB1 receptor internalization [2] | EC50 [3] [nM] | EC50 [4] [nM] |
| --- | --- | --- | --- | --- | --- |
| Cc1c(C(=O)c2cccc3ccccc23)c2cccc3c2n1[C@H](CN1CCOCC1)CO3 [WIN55,212, reference compound] | induced ERK activation | – | – | – | – |
| PA2LR3-P4C6: phage-derived CB1 binding IgG clone (antibody, V domains shown, PA2LR3-P4C6 Heavy Chain Variable region; PA2LR3-P4C6 Light Chain Variable region) VH: EVQLQQSGAELVRPGSSVKISCKASGYAFSYYWMNWVKQRPGQGLEWIGQIYPGDGDTNYNGKFKGKATLTADKSSSTAYMQLSSLTSEDSAVYFCARSHGNYFPYWGQGTLVTVSA VL: DIVITQSPAIVSASLGERVTMTCTASSSVSSSYLHWYQQKPGSSPKLWIYSTSNLASGVPARFSGSGSGTSYSLTISSMEAEDAATYYCQQWSSYPLTFGAGTKLEIK | – | do not induce | do not block | – | – |
| PA2LR3-P5E7: phage-derived CB1 antibody clone (antibody, V domains shown, PA2LR3-P5E7 Heavy Chain Variable region; PA2LR3-P5E7 Light Chain Variable region, phage-derived CB1 antibody clone) VH: EVQLQQSGAELVRPGSSVKISCKASGYAFSNYWMNWVKQRPGQGLEWIGQIYPGDGDTNFNGKFKGRAILTADISSNTAYMQLSSLTSEDSAVYFCARSHGNYFPYWGQGTLVTVSA VL: DIVLTQSPTTMAASPGEKITITCSASSSISSNYLHWYQQKPGFSPKLLIYRTSTLASGVPARFSGSGSGTSYSLTISSMEAEDAATYYCHQYHRSPHTFGSGTKLEIK | – | do not induce | do not block | – | – |
| 36E12B6C2 Fab: Fab of 36E12B6C2 (antibody, V domains shown) VH: QVQLQQSGAELVRPGSSVKISCKASGYEFSYYWMNWVKQRPGQGLQWIGQIYPGDGDTNYNGKFKGKATLTADKSSSTAYMHLTSLTSEDSAVYFCARSGGNPFAFWGQGTLVTVSA VL: DIQMTQTSSSLSASLGDRVTFSCRASQDISNYLNWYQQKPDGTVKLLIYYTSRLHSGVTSRFRGSGSGTDYSLTISNLEQEDVATYFCQQGHTLPWSFGGGTKLEIK | – | – | – | 0.805 | 1.02 |
| PA2LR3-P4B5: anti-CB1 antibody; HC variable SEQ ID NO: 26, LC variable SEQ ID NO: 30 (antibody, V domains shown, PA2LR3- P4B5 Heavy chain variable region; PA2LR3- P4B5 Light chain variable region) VH: EVQLQQSGAELVRPGSSVKISCKASGYAFSYYWMNWVKQRPGQGLEWIGQIYPGDGDTNYSGRFKGKATLTADKSSSTAYIQLSSLTSEDSAVYFCARSHGNYFPYWGQGTLVTVSA VL: DIVLNQSPAIMSASLGERVTMTCTASSSVSSSYLHWYQQKPGSSPKLWIYSTSNLASGVPARFSGSGSGTSYSLTISSMEAEDAATYYCHQYHRSPLTFGAGTKLEIK | – | do not induce | do not block | – | – |
| PA2LR3-P3F8: phage-derived CB1 antibody clone (antibody, V domains shown, PA2LR3-P3F8 Heavy Chain Variable Region; PA2LR3-P3F8 Light Chain Variable Region, phage-derived CB1 antibody clone) VH: EVQLQQSGAELVRPGSSVKISCKASGYAFSNYWMNWVKQRPGQGLEWIGQIYPGDGDTNYNGNFKGKATLTADKSSSTAYMQLSSLTSEDSAVYFCARSHGNYFPYWGQGTLVTVSA VL: DIVLTQSPAIMSASLGERVTMTCTASSSVSSSYLHWYQQKPGSSPKLWIYSTSNLASGVPARFSGSGSGTSYSLTISSMEAEDAATYYCQQWSSYPLTFGAGTKLELK | – | do not induce | do not block | – | – |
| PA2LR3-P4B1: anti-CB1 antibody; HC variable SEQ ID NO: 42, LC variable SEQ ID NO: 46 (antibody, V domains shown, PA2LR3-P4B1 Heavy chain variable region; PA2LR3-P4B1 Light chain variable region) VH: EVQLQQSGAELVRPGSSVKISCKASGFAFSNYWMNWVKQRPGQGLEWIGQIYPGDGDTNFNGKFKGRAILTADISSNTAYMQLSSLTSEDSAVYFCARSHGNYFPYWGQGTLVTVSA VL: QIVLTQSPAIMSASLGERVTMTCTASSSVSSSYLHWYQQKPGSSPKLWIYSTSNLASGVPARFSGSGSGTSYSLTISSMEAEDAATYYCHQYHRSPLTFGAGTKLELK | – | do not induce | do not block | – | – |
| PA2LR3-P3A8: phage-derived CB1 antibody clone (antibody, V domains shown, PA2LR3-P3A8 Heavy Chain Variable Region; PA2LR3-P3A8 Light Chain Variable Region, phage-derived CB1 antibody clone) VH: EVQLQQSGAELVRPGSSVKISCKASGYAFSYYWMNWVKQRPGQGLEWIGQIYPGDGDTNYNGKVKGKATLTADKSSSTAYMQLSSLTSEDSAVYFCARSHGNYFAYWGQGTLVTVSA VL: DIVMTQSPAIMSASLGERVTMTCTASSSVSSSYLHWYQQKPGSSPKLWIYSTSNLASGVPARFSGSGSGTSYSLTISSMEAEDAATYYCQQWSSNPLTFGAGTKLELK | – | do not induce | do not block | – | – |
| PA2LR3-P6G7: anti-CB1 antibody; HC variable SEQ ID NO: 58, LC variable SEQ ID NO: 62 (antibody, V domains shown, PA2LR3-P6G7 Heavy chain variable region; PA2LR3-P6G7 Light chain variable region) VH: EVQLQQSGAELVRPGSSVKISCKASGFAFSNYWMNWVKQRPGQGLEWIGQIYPGDGDTNFNGKFKGRAILTADISSNTAYMQLSSLTSEDSAVYFCARSHGNYFPYWGQGTLVTVSA VL: DIVLTQSPAIMSASLGERVTMTCTASSSVSSSYLHWYQQKPGSSPKLWIYSTSNLASGVPARFSGSGSGTSYSLTISSMEAEDAATYYCHQHHRSPPTFGAGTKLELK | – | do not induce | do not block | – | – |
| PA2LR3-P4G10: phage-derived CB1 binding IgG clone (antibody, V domains shown, PA2LR3-P4G10 Heavy Chain Variable region; PA2LR3-P4G10 Light Chain Variable region) VH: EVQLQQFGAELVRPGSSVKISCKASGYAFSYYWMNWVKQRPGQGLEWIGQIYPGDGDTNYNGKFKGKATLTADKSSSTAYMQLSSLTSEDSAVYFCARSHGNYFAYWGQGTLVTVSA VL: DIVLTQSPAIMSASLGERVTMTCTASSSVSSSYLHWYQQKPGSSPKLWIYSTSNLASGVPARFSGSGSGTSYSLTISSMEAEDAATYYCQQWSSNPLTFGAGTKLELK | – | do not induce | do not block | – | – |
| PA2LR3-P6B12: anti-CB1 antibody; HC variable SEQ ID NO: 50, LC variable SEQ ID NO: 54 (antibody, V domains shown, PA2LR3-P6B12 Heavy chain variable region; PA2LR3-P6B12 Light chain variable region) VH: EVQLQQSGAELVRPGSSVKISCKASGYAFSYYWMNWVKQRPGQGLEWIGQIYPGDGDTNYNGKFKGKATLTADKSSSTAYMQLSSLTSEDSAVYFCARSHGNYFAYWGQGTLVTVSA VL: QIVLTQSPAIMSASLGERVTMTCTASSSVSSSYLHWYQQKPGSSPKLWIYSTSNLASGVPARFSGSGSGTSYSLTISSMEAEDAATYYCHQYHRSPLAFGAGTKLELK | – | do not induce | do not block | – | – |
